Assay: yeast display, Sf9 membrane polyspecificity reagent, FACS + sequencing; frameworks hold sequencing errors
Outline: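 After 36–48 hours of galactose induction, yeast (Saccharomyces cerevisiae BJ5465) displaying a synthetic nanobody library were stained at 4 °C for 1 hour with 10% biotinylated, detergent-solubilized Sf9 membrane reagent. Streptavidin microbeads enriched the stained cells before FACS sorting into low and high (top ~1%) gates on anti-HA and streptavidin fluorescence. Each clone's polyreactivity label reflects its gate of origin.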

Sequence	polyreactivity (PSR sort gate)
QVQLVESGGGLVQAGGSLRLSCAASGYIFENYALGWYRQAPGKERELVAALSTRGGSTYYADSVKGRFTISRDNAKNTVYLQMNSLKPEDTAVYYCAAADSTGYYYWGQGTQVTVSS	high polyreactivity
QVQLVESGGGLVQAGGSLRLSCAASGYIFFTYTMGWYRQAPGKERELVAAINGSVGSTYYADSVKGRFTISRDNAKNTVYLQMNSLKPEDTAVYYCAAEVVDFGYSYEWEDDYWGQGTQVTVSS	high polyreactivity
QVQLVESGGGLVQAGGSLRLSCAASGYIFGAYAMGWYRPAPGKERELVAGITASGDSTYYADSVKGRFTISRDNAKNTVYLQMNSLKPEDTAVYYCNAQPDIGLYDRQWKEPYEYWGQGTQVTVSS	low polyreactivity
QVQLVESGGGLVQAGGSLRLSCAASGYIFGDYVMGWYRQAPGKERELVAAISSSGDTNYADSVKGRFTISRDNAKNTVYLQMNSLKPEDTAVYYCAAVDWIGRVHGKPWGGDYWGQGTQVTVSS	low polyreactivity
QVQLVESGGGLVQAGGSLRLSCAASGYIFGNYAMGWYRQAPGKERELVADITWRGDSTYADSVKGRFTISRDNAKKTVYLQMNSLKPEDTAVYYCAADIATEYWYTGYDHWGQGTQVTVSS	low polyreactivity
QVQLVESGGGLVQAGGSLRLSCAASGYIFGTYGMGWYRQAPGKERELVAGISRSGTSTYYADSVKGRFTISRDNAKNTVYLQMNSLKPEDTAVYYCAAVSRTRYEYWGQGTQVTVSS	high polyreactivity
QVQLVESGGGLVQAGGSLRLSCAASGYIFGWYAMGWYRQAPGKERELVATIDWSGDSTYYADSVKGRFTISRDNAKNTVYLQMNSLKPEDTAVYYCSAGVGYITYYGYDYWGQGTQVTVSS	low polyreactivity
QVQLVESGGGLVQAGGSLRLSCAASGYIFGYVMGWYRQAPGKERELVAAITYSSGNTYYADSVKGRFTISRDNAKNTVYLQMNSLKPEDTAVYYCAKQAYYKGRLAYGYWGQGTQVTVSS	high polyreactivity
QVQLVESGGGLVQAGGSLRLSCAASGYIFHRYAMGWYRQAPGKEREFVAAIRWSGGSTYYADSVKGRFTISRDNAKNTVYLQMNSLKPEDTAVYYCAADKYVLGYYYGQYDYWGQGTQVTVSS	low polyreactivity
QVQLVESGGGLVQAGGSLRLSCAASGYIFKYYAMGWYRQAPGKERELVAAISRSGDSTYYADSVKGRFTISRDNAKNTVYLQMNSLKPEATAVYYCKARYWHGPTGSDYWGQGTQVTVSS	high polyreactivity
QVQLVESGGGLVQAGGSLRLSCAASGYIFKYYAMGWYRQAPGKERELVATINYSGGGTYYADSVKGRFTISRDNAKNTVYLQMNRLKPEDTAVYYCAAREKYISYSYYYWGQCTQVTVSS	high polyreactivity
QVQLVESGGGLVQAGGSLRLSCAASGYIFLANAMGWYRQAPGKERELVAAITSGGGGTYYADSVKGRFTISRDNAKNTVYLQMNSLKPEDTAVYYCAADHGRDGSSFEYWGQGTQVTVSS	low polyreactivity
QVQLVESGGGLVQAGGSLRLSCAASGYIFLGNAMGWYRQAPGKERELVAAINSSGGSTYYADSVKGRFTISRDNAKNTVYLQMNSLKPEDTAVYYCATSDRDGIYVVPHMDYWGQGTQVTVSS	low polyreactivity
QVQLVESGGGLVQAGGSLRLSCAASGYIFLPYAMGWYRQAPGKERELVAAITSVGRTYYADSVKGRFTISRDNAKNTVYLQMNSLKPEDTAVYYCAAPRGHGKYYSWGQGTQVTVSS	high polyreactivity
QVQLVESGGGLVQAGGSLRLSCAASGYIFLVYAMGRSRHAPRKERELVASITRGTRTYYADSVKGRFTISRDNAKNTVYLQMNILKPEDSAVYYCAASQNIRDWFRFGYGSWGQGTQVTVSS	low polyreactivity
QVQLVESGGGLVQAGGSLRLSCAASGYIFNGNAMGWYRQAPGKERELVATITRRGGSTYYADSVKGRFTISRDNAKNTVYLQMNSLKPEDTAVYYCNKRDYSGDYYGPLDYWGQGTQVTVSS	high polyreactivity
QVQLVESGGGLVQAGGSLRLSCAASGYIFPRYAMGWYRQAPGKERELVAAITGSGGSTYYADSVKGRFTISRDNAKNTVYLQMNSLKPEDTAVYYCNTVYYRSGSQRLDYWGQGTQVTVSS	high polyreactivity
QVQLVESGGGLVQAGGSLRLSCAASGYIFPYNAMGWYRQAPGKERELVATITWTGGSKYYADSVKGRFTISRDNAKNTVYLQMNSLKPEDTAVYDCADDLSIRYDHEYGYWGQGTQVTVSS	low polyreactivity
QVQLVESGGGLVQAGGSLRLSCAASGYIFRGYVMGWYRQAPGTERELVAGISRSGSSTYYADSVKGRFTISRDNAKNNVYLQMNSLKPEDTAVYYCAAVRSGIEYGYWGQGTQVTVSS	high polyreactivity
QVQLVESGGGLVQAGGSLRLSCAASGYIFRHYAMVWYRQAPGKERELVAAISSSGGRTNYADSLKGRFTISRDNAKITVYLQMNSLKPEDTAVYYCNAGRYQYLGGYGYWGQGTQVTVSS	low polyreactivity
QVQLVESGGGLVQAGGSLRLSCAASGYIFRIYAMGWYRQAPGKERELVATITNGGSTHYADSVKGRFTISRDNAKNTVYLQMNSLKPEDTAVYYCAADLLYSEYDYWGQGTQVTVSS	high polyreactivity

Sequence	polyreactivity (PSR sort gate)
QVQLVESGGGLVQAGGSLRLSCAASGYIFRQNAMGWYRQAPGKERELVAAISRSDDNTFYADSVKGRFTISRDNAKNTVYLLMNSLKPEDTAVYYCAKYAVPWRYPRGYDYWGQGTQVTVSS	low polyreactivity
QVQLVESGGGLVQAGGSLRLSCAASGYIFRWYAMGWYRQAPGKERELVAAISGRGGRTYYADSVKGRFTISRDNAKNTVYLQMNSLKPEDTAVYYCAAVPVVQSQPTYYYWGQGTQVTVSS	high polyreactivity
QVQLVESGGGLVQAGGSLRLSCAASGYIFSGYAMGWYRQAPGKERELVAAISSNGGSTYYADSVKGRFTISRDNAKNTVNLQMNSLKPEDTAVYYCNRGLAARVGRGDYWGQGTQVTVSS	low polyreactivity
QVQLVESGGGLVQAGGSLRLSCAASGYIFSLYAMGWYRQAPGKERELVADITTSAGSTYYADSVKGRFTISRDNAKNTVYLQMNSLKPEDTAVYYCAADVYGHTYYDYDYWGQGTQVTVSS	low polyreactivity
QVQLVESGGGLVQAGGSLRLSCAASGYIFTEYAMGWYRQAPGKERELVAAIDWSGGSTYYADSVKGRFTISRDNAKNTVYLQMNSLKPEDTAVYYCAKYYYTSIVGYDSWGQGTQVTVSS	low polyreactivity
QVQLVESGGGLVQAGGSLRLSCAASGYIFTRNAMGWYRQAAGKERELVATISSRGGRTYYADSVKGRFTISRDNAKNTVYLQMNSLKPEDTAVYYCAATPWYRTRTYDYWGQGSQVTVSS	high polyreactivity
QVQLVESGGGLVQAGGSLRLSCAASGYIFTYNAMGWYRQAPGKERELVAAISSGGSTNYADSVKGRFTISRDNAKNTVYLQMNSLKPEDTAVYYCAAPVWTYDDYFSYSYSYGYWGQGTQVTVSS	low polyreactivity
QVQLVESGGGLVQAGGSLRLSCAASGYIFVHYAMGWYRQEPGKERELVAAISKSGSSTYYADSVKGRFTISRDNAKNTVYLQMHSLKPEDTAVYYCAGVYPYVSGYTYGYWGQGTQVTVSS	low polyreactivity
QVQLVESGGGLVQAGGSLRLSCAASGYIFVKNAMGWYRQAPGTERELVAAISTRGGRTYYADSVKGRFTISRDNAKNTVYLQMNSLKPEDTAVYYCAAVHQTSYYDANSYGYWGQGTQVTVSS	high polyreactivity
QVQLVESGGGLVQAGGSLRLSCAASGYIFVTNAMGWYRQAPGKERELVAAISYRGGSTSYADSVKGRFTISRDNAKNTVYLQMNSLKPEDTAVYYCNAVTFPLGYLRFYYWGQGTQVTVSS	low polyreactivity
QVQLVESGGGLVQAGGSLRLSCAASGYIFVTNAMGWYRQAPGKERELVAAISYRGGSTSYADSVKGRFTISRDNAMNTVYLQMNSLKPEDTAVYYCNAVTFPLGYLRFYYWGQGTQVTVSS	low polyreactivity
QVQLVESGGGLVQAGGSLRLSCAASGYIFWENAMGWYRPAPGKERELVAAITVSGGGTYYADSVKGRFTISRDNAKNTVYLQRNSLKPEDTAVYYCAADEDNPWLWFYYWGQGTQVTVSS	low polyreactivity
QVQLVESGGGLVQAGGSLRLSCAASGYIFWENAMGWYRQAPGKERELVAAITVSGGGTYYADSVKGRFTISRDNAKNTVYLQMNSLEPEDTAVYSCAADEDNPWLWFYYCGQGTQVTVSS	low polyreactivity
QVQLVESGGGLVQAGGSLRLSCAASGYIFYDNAMGWYRQAPVKERELVAAISASGGDTYYADSVKGRFTISRDNAKNTVYLQMNSLKPDDTAVYYCAADLITYAMEYWGQGTQVTVSS	low polyreactivity
QVQLVESGGGLVQAGGSLRLSCAASGYIFYFYAMGWYRQAPGKERELVAAISSSGGSTRYADSVKGRFTISRDNAKNTVYLQMNSLKPEDTAVYYCAASHWSGAAWYYYWGQGTQVSVSS	high polyreactivity
QVQLVESGGGLVQAGGSLRLSCAASGYIFYNAMGWYRQAPGKERELVASISRRSGSTYYADSVKGRFTISRDNAKNTVYLQMNSLKPEDTAVYYCAADRPPWETYGYDYWGQGTQVTVSS	low polyreactivity
QVQLVESGGGLVQAGGSLRLSCAASGYIISYNTMGWYRPAPGKERELVASIRWGGGRTYYADSVKGRFTISRDNAKNTVYLQLNSLKPEDTAVYYCNVKSSRFLDVGRMEYWGQGTQVTVSS	high polyreactivity
QVQLVESGGGLVQAGGSLRLSCAASGYILDVYAMGWYRQAHGKERELVAVITWRTDSTYYADSVKGRFTISRDNAKNTVYLQMNSLKPEDTAVYYCAKVLRLSKYRYYYWGQGTQVTVSS	high polyreactivity
QVQLVESGGGLVQAGGSLRLSCAASGYILGKNVMGWYRPAPGKERELVAAISSGGRTYYADSVKGRFTISRDNAKNTVYLQMNSLKPEDTAVYYCAPDLKYYGYDYWGQGTQVTVSS	high polyreactivity
QVQLVESGGGLVQAGGSLRLSCAASGYILQKYAMGWYRQAPGKERELVATISGGGGSTYYADSVKGRFTISRDNAKNTVYLLMNSLKPEDTAVYYCAKEYPWLPRSYEYWGQGTQVSVSS	low polyreactivity

— the nanobody polyreactivity screen of Harvey et al. (2022)
